Assay results: PMC9284671 (Structure (London, England : 1993), 2022)

Experiments:
[1] = biological target: T1, SARS-CoV-2 spike S2 subunit (SARS-CoV-2 (WA-1 / Wuhan-Hu-1), UniProt P0DTC2); test: far-Western, overlay or dot blot
[2] = biological target: T2, SARS-CoV spike peptide #154 (PELDSFKEELDKYFKNH) (SARS-CoV); test: far-Western, overlay or dot blot
T2 chain: PELDSFKEELDKYFKNH

[3] = biological target: hCoV-OC43 full-length spike (hCoV-OC43 (AAT84354.1, cross-referenced …, UniProt P36334)); test: flow cytometry on cells
[4] = biological target: MERS-CoV full-length spike (EMC) (MERS-CoV EMC/2012 (GenBank AFS88936), UniProt K0BRG7); test: flow cytometry on cells
[5] = biological target: SARS-CoV-2 full-length spike (WA-1) (SARS-CoV-2 WA-1 (GenBank QHD43416.1), UniProt P0DTC2); test: flow cytometry on cells
[6] = biological target: SARS-CoV full-length spike (Urbani) (SARS-CoV Urbani, UniProt P59594); test: flow cytometry on cells
[7] = biological target: hCoV-HKU1 full-length spike (hCoV-HKU1 isolate N1, UniProt Q5MQD0); test: flow cytometry on cells
[8] = biological target: hCoV-HKU1 S2P (pre-fusion-stabilized soluble spike) (hCoV-HKU1 isolate N1, UniProt Q5MQD0, stabilised); test: ELISA
[9] = biological target: hCoV-OC43 S2P (pre-fusion-stabilized soluble spike) (hCoV-OC43 (AAT84354.1, cross-referenced …, UniProt P36334, stabilised)); test: ELISA
[10] = biological target: SARS-CoV-2 S-dTM (soluble spike protein residues 1-1,206 of wild-type WA-1 strain) (SARS-CoV-2 WA-1, UniProt P0DTC2); test: ELISA
[11] = biological target: T1, SARS-CoV-2 spike S2 subunit; test: negative-stain electron microscopy

Measured: binding result

B1: WS6 (monoclonal antibody, IgG) (antibody, V domains shown)
VH: EVQFQQSGTVLARPGASVKMSCKASGYTFTNYWIHWVKQRPGQGLEYIGGTYPGNGDTTYNQKFKGKAKVTAVTPTSTAYMDLSSLTNEDSAVYYCTRTGSYFDYWGQGTTLTVSS
VL: QIVLTQSPAIMSASPGEKVTISCSATSSVSYIYWYQQRPGSSPKPWIYRTSNLASGVPVRFSGSGSGTSYSLTISNMEAEDAATYYCQQYQSYPPTFGAGTKLELK
not listed: [11]
binds: all other assays above

B2: WS6 Fab (antigen-binding fragment of WS6) (Fab, V domains shown)
VH: B1 VH
VL: B1 VL
binds: [11]
